The values that follow come from article PMC5594479, “Identification and immobilization of a novel cold-adapted esterase, and its potential for bioremediation of pyrethroid-contaminated vegetables” (Microbial Cell Factories, 2017).

Substrate in the series: CCCC(=O)Oc1ccc([N+](=O)[O-])cc1
The experiment in a line: purified protein. The settings on record: free (soluble) enzyme, potassium phosphate pH 6.5, 18 °C, substrate range printed as 1.0 to 10.0 mM, does not fit the printed Km unit. It is filed as biochemical, uncultured microorganism.

B1: Est684 (uncultured microorganism) (protein)
chain: MPSGENQFYVDKPSRGENYGAYVADELVEFTRKMFPLSYKKEDTFIAGLSMGGYGALINGLKYHETFSHIGAFSPGLMIDDIASRSELLSVTGWSMDFYGNSFGGIDTIKNSDKDYYYLIDQLLENKKEIPKIYLPIGTDDFLLESVRGFKSFVDKREVPLTYIEDDGGHEWDFWDKYVKNFLEWLPLEEKGNYLNSGNVAEHGFRDADAQKAQAALVAWFEETLKK
notes: E. coli BL21 (DE3); Ni-NTA and Superdex 200; putative triad S103/D167/H203
For the protein B1, the Km was 6.01 mM and the kcat amounted to 417.15 ± 1.51 s⁻¹.
